Experimental data from the nanobody polyreactivity screen of Harvey et al. (2022).

Assay: yeast display, Sf9 membrane polyspecificity reagent, FACS + sequencing; frameworks hold sequencing errors
How it was run: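 Nanobodies came from a synthetic yeast display library in Saccharomyces cerevisiae BJ5465, induced with galactose for 36–48 hours and stained for 1 hour at 4 °C with 10% biotinylated, detergent-solubilized Sf9 membrane reagent. Cells were enriched on streptavidin microbeads and then FACS-sorted, with low and high (top ~1%) gates set on anti-HA fluorescence for expression and streptavidin fluorescence for reagent binding. Each polyreactivity label reflects the gate a clone came from. Genes were amplified by colony PCR, sequenced by MiSeq 2 × 250 and filtered by CDR length.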

Row | Sequence | polyreactivity (PSR sort gate)
1 | QVQLVESGGGLVQAGGSLRLICAASGRTFDGYVMGLYRQAPGKERELVASIRGTGSTYYADSVKGRFTISRENAKNTVYLQMNSLKPEDTAVYYCAARPGYAYDWGQGTQVTVSS | high polyreactivity
2 | QVQLVESGGGLVQAGGSLRLICAASGRTFDLYAMGWCRQAPGKEREFVAAITKGGGSTYYADSVKGRFTISRDNAKNTVYLQMNSLKPEDTAVYYCAARKYKRIYRISSGIGYYWGQGTQVTVSS | high polyreactivity
3 | QVQLVESGGGLVQAGGSLRLICAASGRTFNWNAMGWYRQAPGKERELVAAITSGGNTYYADSVKGRFTISRDNAKNTVYLQMNSLKPEDTAVYYCAKVTYEGGYRYNYWGQGTQVTVSS | high polyreactivity
4 | QVQLVESGGGLVQAGGSLRLICAASGRTFQYYAMGWYRQAPGKERELVAAITSGGSTYYADSVKGRFTISRDNAKNTVYLQMNSLKPEDTAVYYCAATFYYSGHDDYWGQGTQVTVSS | low polyreactivity
5 | QVQLVESGGGLVQAGGSLRLICAASGRTFRSYAMGWYRQAPGKERELVAAISWSGGSTYYADSVKGRFTISRDNAKNTVYLQMNSLKPVDTAVYYCAAEVYYTYVYILDYWGQGTQVTVSS | high polyreactivity
6 | QVQLVESGGGLVQAGGSLRLICAASGRTFSVNDMGWYRQAPGKERELVAAISFSGGSTYYADSVKGRFTISRDNAKNTVYLQMNSLKPEDTAVYYCAAEAYPSWFYVITGFGIYDYWGQGTQVTVSS | high polyreactivity
7 | QVQLVESGGGLVQAGGSLRLICAASGRTFSYYAMGWYRQAPGKERELVATIRFSGGGTYYADSVKGRFTISRDNAKNTVYLQMNSLKPEDTAVYYCNADSIDPFLYDYWGQGTQVTVSS | low polyreactivity
8 | QVQLVESGGGLVQAGGSLRLICAASGRTFVPYAMGWYRQAPGKERELVAAINSGGSTYYADSVKGRFTSSRDNAKNTVYLQMNSLKPADTAVYDCAAEYWNSRFSYAYGYWGQGTQVTVSS | high polyreactivity
9 | QVQLVESGGGLVQAGGSLRLICAASGRTFVYNTMGWYRQAPGKERELVAAITDRGTSTYYADSVKGRFTISRDNAKNPVYLLLNSLNPEDTAVYYWAKDWLVTEFDYWGQGTQVTVSS | low polyreactivity
10 | QVQLVESGGGLVQAGGSLRLICAASGRTFWSYARGWSRQAPGKERQLVAAIRTSDGITYYADSVKGRFTISRDTAKNTVYLQMNSLKPEDTAVYYCAAENWYKYDYWGQGTQVTVSS | low polyreactivity
11 | QVQLVESGGGLVQAGGSLRLICAASGRTFYVYAMGWYRQAPGKEREFVARITSNGGSTTYADSVKGRFTISRDNAKNTVYLQMNSLKPDDTAVYYCNADYDPEDMDYWGQGTQVTVSS | low polyreactivity
12 | QVQLVESGGGLVQAGGSLRLICAASGRTFYYYAIGWYRQAPGKERELVASISYSAGRTYADSVKGRFTSSRDNAKNTVYLQMNSLKPEDTAVYYCNSDVTTVPYTNDYWGQGTQVTVSS | high polyreactivity
13 | QVQLVESGGGLVQAGGSLRLICAASGRTIWSNAMGRYRHAPGKEWEFVAGISQDGTSRYYADSVKGRFTISRDNAKNTVYLQMNSLKPEDTAVYYCAARSSFRRRSGPTPYGFDYWGQGTQVTVSS | high polyreactivity
14 | QVQLVESGGGLVQAGGSLRLICAASGRTLWSNAMGWYRQAPGKEMELFATISRGGGSTSYADSVKGRFTISRYNAKKTVYLQLYSLKPEDTSVYYCNNYPYIQRTWWYDYWGQGTQVTVSS | high polyreactivity
15 | QVQLVESGGGLVQAGGSLRLICAASGRTSYIDAMGWYREAPGKERELVARIRSGGSTNYADSVKGRFTISRDNAKNPVYVQMNSLKPEDTAVYYCNADFAFSRKYQANPYSAYDYWGQGTQVTVSS | high polyreactivity
16 | QVQLVESGGGLVQAGGSLRLICAASGSIFARYAMGWYRQAPGKERELVAAITGRGGSTYYADSVKGRFTISRDNAKNTVYLQMNSLKPEDTAVYYCNAVGHTSIRRALDILDYWGQGTQVTVSS | high polyreactivity
17 | QVQLVESGGGLVQAGGSLRLICAASGSIFCYAMGWYRQAPGKERELVAGISRGGSTYYADSVKGRFTISRDNAKNTGYLKMNSLKPEDTAVYYCNTAGYYGTPYNYWGQGTQVTVSS | low polyreactivity
18 | QVQLVESGGGLVQAGGSLRLICAASGSIFDYYTRGWYRQAPGKERELVASITQSGGSTYYADSVKGRFTISRDNGKNTVYLQMNSLKPEDTAVYYCAADFSIVKMDYWGQGTQVTVSS | low polyreactivity
19 | QVQLVESGGGLVQAGGSLRLICAASGSIFGHNAMGWYRQAPGKERELVAAISRGTRTNYADSVKGRFTISRDNEKNTVYLQMNSLKPEDTAVYYCNLQPGRGPYVGRKYGYWGQGTQVTVSS | high polyreactivity
20 | QVQLVESGGGLVQAGGSLRLICAASGSIFGSNAMGWYRQAPGKEREFVAVITWRVGDTYYADSVKGRFTISRDNAKNTVYLQMKSLKPEDTAVYYCNVDWKVYGAPDYRIAWKYDYWGQGTQVTVSS | low polyreactivity

Row | Sequence | polyreactivity (PSR sort gate)
21 | QVQLVESGGGLVQAGGSLRLICAASGSIFGVYAMGWYSQAPGKERELVATITRGGSTYYADSVKGRFTISRDNAKNTGYLQMNSLKPEDTSVYYGARAPVYFRHKYYYWGQGTQVTVSS | high polyreactivity
22 | QVQLVESGGGLVQAGGSLRLICAASGSIFLTNAMGWYRQAPGKEREFVAAIDWGCTITYYADSVKGRFTISRDNAKNTVYLQMNSLKPEDTAVYYCGADPTYPYGYWGQGTQVSVSS | low polyreactivity
23 | QVQLVESGGGLVQAGGSLRLICAASGSIFNAYAMGWYRQAPGKEREFVAAITGGGTYYADSVKGRFTISRDNAKNTVYLQMNSLKPEDTAVYYCNADYGTSRHTFWDYESWGQGTQVTVSS | low polyreactivity
24 | QVQLVESGGGLVQAGGSLRLICAASGSIFNGYAMGWYSQAPGKERELVADIRSGGSTYYADSVKGRFTISRDNAKNTVYLQMNSLKPEDTAVYYCAADTITDGYDYWGQGTQVTVSS | low polyreactivity
25 | QVQLVESGGGLVQAGGSLRLICAASGSIFNGYVMGWYRQAPGKERELVASINRGGTTNYADSVKGRFTISRDNAKNTVYLLMNSLKPEETAVYYCAVDDDANSLGGYYVLFDYWGQGTQVTVSS | low polyreactivity
26 | QVQLVESGGGLVQAGGSLRLICAASGSIFPSYAMGWYRQAPGKERELVAAISVSGGRTYYADSVKGRFTISRDNAKYSVYLQMNSLKPEDTAVYYCATVGKQKYDAKYGYWGQGTQVTVSS | high polyreactivity
27 | QVQLVESGGGLVQAGGSLRLICAASGSIFRYYAMGWYRQAPGKERELVAVITRSSSTYYADSVKGRFTISRDNAKNTVYLQMNSLKPEDTAVYDCAARYRSGAAGYNYWGQGTQVTVSS | high polyreactivity
28 | QVQLVESGGGLVQAGGSLRLICAASGSIFSTNTKGWYRQAPGKERELVAAISISGGSTHYADSVKGRFTISRDNAKNPVYLQMNSLKPEYTAVYYCAADLWYYAYSYDYWGRGTQVTVSS | high polyreactivity
29 | QVQLVESGGGLVQAGGSLRLICAASGSIFSYYAMGWYIKAPGKERELVAVINSGGRTNYADSVKGRFTISRDNAKNTVYVQMNSLKPEDTAVYYCAAQCYFVERAGRYYRGEYWGQGTQVTVSS | high polyreactivity
30 | QVQLVESGGGLVQAGGSLRLICAASGSIFTYYAMGWYRQAPGKDRDLVAAINWSGGSTYYADSVKGRFTISRDNAKNTVYLQINSLNPEDTAVYYCSNDYYARRHSPRYDYWGQGTQVTVSS | low polyreactivity
31 | QVQLVESGGGLVQAGGSLRLICAASGSIFVNYAMGWYRQAPGKERELVAAITRSGGGTYYADSVKGRFTISRDNAKNTVYLQMNSLKPEVTAVYYCAARLGYAGNRDGYWGQGTQVTVSS | high polyreactivity
32 | QVQLVESGGGLVQAGGSLRLICAASGSIFYQNAMVGYRQAPGKERELVAAIRSRGGSTYYADSVKGRFTISRDNATNTVYLQMNSLKPEDTAVYYCNKLSRTTSYTYNYWGQGTQVTVSS | low polyreactivity
33 | QVQLVESGGGLVQAGGSLRLICAASGSIFYYYAMVWYRQAPGKERELVAAISSGGSTNYADSVKGRFTISRDNAKNTVYLQMNSLKPEDTAVYYCAADYRAQYVVWYTYDYWGQGTQVTVSS | low polyreactivity
34 | QVQLVESGGGLVQAGGSLRLICAASGSILGTYAMGWYRQAPGKERELVAAITLSTDGTYYADSVKGRFTISRDNAKNTVYLQMNCLKPEDTAVYYFAAPWNWRWVTQWGYYVRADYYWGQGSQVTVSS | low polyreactivity
35 | QVQLVESGGGLVQAGGSLRLICAASGSILNWYAMGWYRQAPGKERELVAAINRGTGTYYADSVKGRFTISRDNAKNTVYLQMISLKTEDTAVYYCAAEWYVYDFEFYYWGQGTQVTVSS | high polyreactivity
36 | QVQLVESGGGLVQAGGSLRLICAASGSILQRNAMGWYRPAPGKERELVAAISWSGDNTYYADSVKGRFTISRDNAKNTVYLQMNSVKPEDTAVYYCATDADIYFQEYDYWGQGTQVTVSS | low polyreactivity
37 | QVQLVESGGGLVQAGGSLRLICAASGSILVSYARGWYRQAPGKERELVAAITSGGRTKYADSVKGRFTISRDNAKNTVYLQMNSLKPEDNAVYYCAADDPLSYQFDYWGQGTQVTVSS | high polyreactivity
38 | QVQLVESGGGLVQAGGSLRLICAASGSISVVNMGWYRQSPGKERELVASITSSGSTTYADSVKGRFTISRDNAKNTVYLQMNSVKPEDTAVYYCASDVGTDYTYQHPAGAAYDYWGQGTQVTVSS | low polyreactivity
39 | QVQLVESGGGLVQAGGSLRLICAASGSNFWSYAMGWYRQAPGKERELVADITWSGGNTYADSVKGRFTISRDNAMNTVYLQMNSLKPEDTAVYYCAADPAHGTKWYVYPSHDDYWGQGTQVTVSS | low polyreactivity
40 | QVQLVESGGGLVQAGGSLRLICAASGSNFYVYAMGWYRQAPGKERELVAAISDSGSRTYYADSVKGRFTISRDNAKNTVYLKKNSLKPEDTAVYYCAALTRRTGYTYKEYYWGQGTQVTVSS | high polyreactivity
